Test results reported in the supplement of paper PMC9732359.
± gives the uncertainty stated by the source.

Experiment: protein stability index of a GFP-peptide fusion (yeast GPS) (PSI 1-4); higher = more stable; sorted into four equal gates, so the index is relative within each strain
Outline: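 Plasmids in a pooled yeast library fused tiled 17-residue yeast protein peptides downstream of GFP and also expressed Cherry. Mid-log cultures grown without leucine were sorted into four equal gates by GFP/Cherry fluorescence ratio. Each gate's plasmids were PCR-amplified and Illumina-sequenced, and reads were matched to strains by barcodes. The protein stability index is derived by multiplying each gate's read frequency by its gate number and summing the results.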

| Sequence | protein stability index (doa10∆) | protein stability index (pdr5∆) | protein stability index (san1∆) | protein stability index (ubr1∆) |
| --- | --- | --- | --- | --- |
| GFALNSDIVFIHQNAGR [BRR2] | 3.03 ± 0.12 | 2.09 ± 0.09 | 1.78 ± 0.2 | 2.02 ± 0.057 |
| AIEPETFTQLVSSSLYE [PUP3] | 2.35 ± 0.063 | 2.89 ± 0.068 | 2.75 ± 0.063 | 2.54 ± 0.043 |
| KEKYGLAVSTILGKNFD [SMC1] | 2.98 ± 0.07 | 2.82 ± 0.066 | 2.69 ± 0.057 | 2.58 ± 0.05 |
| TSAHEAIRADPAFKPTE [RPL5] | 3.24 ± 0.15 | 3.17 ± 0.14 | 3.11 ± 0.089 | 3.33 ± 0.11 |
| KLTRELEKKFPDRHVIF [RPS7B] | 2.75 ± 0.058 | 2.94 ± 0.049 | 2.99 ± 0.04 | 3.14 ± 0.033 |
| IKEELTKLIISGQLNFE [PCI8] | 3.29 ± 0.15 | 3.19 ± 0.15 | 2.54 ± 0.26 | 2.99 ± 0.088 |
| LFLEPSWSSSAAVIMRC [PCI8] | 1.19 ± 0.087 | 2.07 ± 0.093 | 1.58 ± 0.16 | 2.39 ± 0.095 |
| KKMGVPYAIVKGKARLG [RPL8A] | 1.87 ± 0.17 | 2.09 ± 0.16 | 2.12 ± 0.17 | – |
| RTQPWSIMPDLYFYRNP [RPS0B] | 2.55 ± 0.051 | 2.85 ± 0.056 | 2.85 ± 0.043 | 2.6 ± 0.055 |
| YLKAFDKNKLLLLAAQI [SSN2] | 1.32 ± 0.061 | 1.37 ± 0.052 | 1.36 ± 0.085 | 1.42 ± 0.045 |
| GISNGSESKDSDKPSLP [YLR335W/NUP2] | 3.29 ± 0.13 | 3.19 ± 0.12 | – | 2.79 ± 0.13 |
| KGRFAVHRITDEEASYK [RPS4A] | 3.13 ± 0.075 | 3.2 ± 0.091 | 3.35 ± 0.061 | 3.33 ± 0.07 |
| RESTKALTRGEALLVVL [RPS12] | – | 3.49 ± 0.16 | – | 3.4 ± 0.045 |
| ESIASSNTYKEERSNNL [MCD1] | 3.03 ± 0.13 | 3.37 ± 0.14 | 3.25 ± 0.06 | 3.39 ± 0.075 |
| HLVELLLVFRNADLDLD [YDL116W/NUP84] | 3.17 ± 0.12 | 2.46 ± 0.098 | 2.17 ± 0.099 | 2.5 ± 0.13 |
| KSHNAHVRCGTAFALGI [RPN2] | 1.72 ± 0.27 | 2.41 ± 0.1 | 2.18 ± 0.14 | 1.8 ± 0.075 |
| SKVREEVGDVCINELDN [RPO31] | 3.15 ± 0.095 | 2.32 ± 0.06 | 2.84 ± 0.075 | 3.18 ± 0.065 |
| NSEKFVFLLTTRAGGLG [ISW2] | 1.67 ± 0.26 | 1.4 ± 0.13 | 1.11 ± 0.11 | 1.51 ± 0.12 |
| QRKKQIAFPQRKYAIKA [RPL35A] | 1.25 ± 0.059 | 1.51 ± 0.078 | 1.1 ± 0.17 | 1.23 ± 0.062 |
| KQAHEKLDASKKQQAAL [YIL149C/MLP2] | 3.08 ± 0.064 | 2.88 ± 0.052 | 3.25 ± 0.059 | 3 ± 0.057 |
| GISSAYIKSATLYSVKS [SNU114] | 1.39 ± 0.12 | 1.43 ± 0.11 | 1.67 ± 0.26 | 1.75 ± 0.17 |
| PSKTPEVYMRYRNFMVN [SWI3] | 1.8 ± 0.075 | 1.81 ± 0.072 | 1.82 ± 0.14 | 1.81 ± 0.062 |
| FNRTKGKMVRAQDVALA [PRP8] | 1.86 ± 0.21 | 1.76 ± 0.13 | – | 1.06 ± 0.096 |
| SDMQHIERLLKDLVTEN [PRE4] | 1.63 ± 0.14 | 2.61 ± 0.13 | 2.31 ± 0.17 | 2.97 ± 0.15 |
| SKGYPIQFLTIGAGVPS [FAS1] | 1.4 ± 0.032 | 1.64 ± 0.045 | 1.34 ± 0.061 | 1.34 ± 0.036 |
| SAEDEENIIQRLQAANS [CDC53] | 3.15 ± 0.081 | 3.4 ± 0.066 | 3.15 ± 0.048 | 3.02 ± 0.065 |
